# Test results taken from patent US20120245327.
# T1: recombinant human collagen Type III (purified product of TT061226-1-3 strain)
# T1 chain: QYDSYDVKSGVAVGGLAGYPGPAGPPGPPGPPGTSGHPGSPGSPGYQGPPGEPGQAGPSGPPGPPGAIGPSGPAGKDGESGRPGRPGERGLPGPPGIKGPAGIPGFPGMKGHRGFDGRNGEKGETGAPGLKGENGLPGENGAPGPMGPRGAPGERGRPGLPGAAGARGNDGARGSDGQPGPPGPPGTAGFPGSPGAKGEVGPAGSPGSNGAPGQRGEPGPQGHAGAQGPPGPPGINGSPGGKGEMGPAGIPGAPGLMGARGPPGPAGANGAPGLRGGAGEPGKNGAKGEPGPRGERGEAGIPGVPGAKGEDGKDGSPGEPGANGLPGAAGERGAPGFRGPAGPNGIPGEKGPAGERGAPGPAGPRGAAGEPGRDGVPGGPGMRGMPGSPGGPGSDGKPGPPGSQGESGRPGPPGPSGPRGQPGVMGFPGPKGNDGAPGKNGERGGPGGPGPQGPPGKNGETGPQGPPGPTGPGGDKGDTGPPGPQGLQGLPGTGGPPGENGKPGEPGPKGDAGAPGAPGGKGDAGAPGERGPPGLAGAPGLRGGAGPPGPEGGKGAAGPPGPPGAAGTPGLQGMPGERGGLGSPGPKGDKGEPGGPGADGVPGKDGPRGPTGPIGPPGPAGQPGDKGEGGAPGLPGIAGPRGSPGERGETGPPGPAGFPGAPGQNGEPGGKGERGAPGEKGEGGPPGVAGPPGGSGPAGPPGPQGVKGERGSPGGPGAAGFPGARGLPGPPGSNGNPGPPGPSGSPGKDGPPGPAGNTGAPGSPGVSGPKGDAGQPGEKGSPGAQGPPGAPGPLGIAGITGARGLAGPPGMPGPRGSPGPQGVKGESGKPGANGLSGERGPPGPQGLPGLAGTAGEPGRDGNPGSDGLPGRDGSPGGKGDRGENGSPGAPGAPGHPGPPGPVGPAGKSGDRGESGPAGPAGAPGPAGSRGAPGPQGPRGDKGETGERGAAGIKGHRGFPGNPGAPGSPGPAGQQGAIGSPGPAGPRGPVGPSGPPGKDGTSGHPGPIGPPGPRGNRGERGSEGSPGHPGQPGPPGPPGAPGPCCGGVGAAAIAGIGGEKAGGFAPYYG
# B1: lysyl hydroxylase 1 (protein)
# chain: KGDAKPEDNLLVLTVATKETEGFRRFKRSAQFFNYKIQALGLGEDWNVEKGTSAGGGQKVRLLKKALEKHADKEDLVILFTDSYDVLFASGPRELLKKFRQSRSQVVFSAEELIYPDRRLETKYPVVSDGKRFLGSGGFIGYAPNLSKLVAEWEGQDSDSDQLFYTKIFLDPEKREQINITLDHRCRIFQNLDGALDEVVLKFEMGHVRARNLAYDTLPVLIHGNGPTKLQLNYLGNYIPRFWTFETGCTVCDEGLRSLKGIGDEALPTVLVGVFIEQPTPFVSLFFQRLLRLHYPQKHMRLFIHNHEQHHKAQVEEFLAQHGSEYQSVKLVGPEVRMANADARNMGADLCRQDRSCTYYFSVDADVALTEPNSLRLLIQQNKNVIAPLMTRHGRLWSNFWGALSADGYYARSEDYVDIVQGRRVGVWNVPYISNIYLIKGSALRGELQSSDLFHHSKLDPDMAFCANIRQQDVFMFLTNRHTLGHLLSLDSYRTTHLHNDLWEVFSNPEDWKEKYIHQNYTKALAGKLVETPCPDVYWFPIFTEVACDELVEEMEHFGQWSLGNNKDNRIQGGYENVPTIDIHMNQIGFEREWHKFLLEYIAPMTEKLYPGYYTRAQFDLAFVVRYKPDEQPSLMPHHDASTFTINIALNRVGVDYEGGGCRFLRYNCSIRAPRKGWTLMHPGRLTHYHEGLPTTRGTRYIAVSFVDP
# What was measured:
# [1] = target: recombinant human collagen Type I (purified product of TT080417-1-8 strain)
# [2] = target: T1, recombinant human collagen Type III …
# recombinant human collagen Type I (purified product of TT080417-1-8 strain), sequence (chain, as listed by the source, chain 1 of 2): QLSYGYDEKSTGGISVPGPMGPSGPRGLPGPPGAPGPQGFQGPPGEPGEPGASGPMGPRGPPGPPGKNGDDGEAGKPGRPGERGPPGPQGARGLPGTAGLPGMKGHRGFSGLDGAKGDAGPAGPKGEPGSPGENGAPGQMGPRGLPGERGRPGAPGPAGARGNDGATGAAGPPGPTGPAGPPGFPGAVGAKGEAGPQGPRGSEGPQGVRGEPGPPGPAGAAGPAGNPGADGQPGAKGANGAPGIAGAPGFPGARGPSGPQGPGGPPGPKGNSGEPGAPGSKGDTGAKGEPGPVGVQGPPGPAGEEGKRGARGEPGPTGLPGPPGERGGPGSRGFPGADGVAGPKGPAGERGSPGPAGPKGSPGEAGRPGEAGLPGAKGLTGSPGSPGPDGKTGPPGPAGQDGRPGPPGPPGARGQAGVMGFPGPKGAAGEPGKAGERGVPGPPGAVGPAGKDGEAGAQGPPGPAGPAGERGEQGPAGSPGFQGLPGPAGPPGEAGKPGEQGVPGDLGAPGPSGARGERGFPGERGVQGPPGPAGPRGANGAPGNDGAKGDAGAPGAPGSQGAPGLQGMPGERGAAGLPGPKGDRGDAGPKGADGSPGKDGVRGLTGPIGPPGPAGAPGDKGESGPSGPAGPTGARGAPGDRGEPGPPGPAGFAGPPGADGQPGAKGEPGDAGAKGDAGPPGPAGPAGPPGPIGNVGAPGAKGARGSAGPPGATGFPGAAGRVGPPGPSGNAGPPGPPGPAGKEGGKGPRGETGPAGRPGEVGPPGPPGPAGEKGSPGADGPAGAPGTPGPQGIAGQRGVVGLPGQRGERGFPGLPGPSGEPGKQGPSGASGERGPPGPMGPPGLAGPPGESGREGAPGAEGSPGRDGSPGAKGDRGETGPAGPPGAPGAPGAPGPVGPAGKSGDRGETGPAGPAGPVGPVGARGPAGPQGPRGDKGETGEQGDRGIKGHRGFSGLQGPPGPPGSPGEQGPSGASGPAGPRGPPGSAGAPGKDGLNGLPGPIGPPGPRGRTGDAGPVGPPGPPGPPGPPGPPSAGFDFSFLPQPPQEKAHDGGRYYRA
# recombinant human collagen Type I (purified product of TT080417-1-8 strain), sequence (chain, as listed by the source, chain 2 of 2): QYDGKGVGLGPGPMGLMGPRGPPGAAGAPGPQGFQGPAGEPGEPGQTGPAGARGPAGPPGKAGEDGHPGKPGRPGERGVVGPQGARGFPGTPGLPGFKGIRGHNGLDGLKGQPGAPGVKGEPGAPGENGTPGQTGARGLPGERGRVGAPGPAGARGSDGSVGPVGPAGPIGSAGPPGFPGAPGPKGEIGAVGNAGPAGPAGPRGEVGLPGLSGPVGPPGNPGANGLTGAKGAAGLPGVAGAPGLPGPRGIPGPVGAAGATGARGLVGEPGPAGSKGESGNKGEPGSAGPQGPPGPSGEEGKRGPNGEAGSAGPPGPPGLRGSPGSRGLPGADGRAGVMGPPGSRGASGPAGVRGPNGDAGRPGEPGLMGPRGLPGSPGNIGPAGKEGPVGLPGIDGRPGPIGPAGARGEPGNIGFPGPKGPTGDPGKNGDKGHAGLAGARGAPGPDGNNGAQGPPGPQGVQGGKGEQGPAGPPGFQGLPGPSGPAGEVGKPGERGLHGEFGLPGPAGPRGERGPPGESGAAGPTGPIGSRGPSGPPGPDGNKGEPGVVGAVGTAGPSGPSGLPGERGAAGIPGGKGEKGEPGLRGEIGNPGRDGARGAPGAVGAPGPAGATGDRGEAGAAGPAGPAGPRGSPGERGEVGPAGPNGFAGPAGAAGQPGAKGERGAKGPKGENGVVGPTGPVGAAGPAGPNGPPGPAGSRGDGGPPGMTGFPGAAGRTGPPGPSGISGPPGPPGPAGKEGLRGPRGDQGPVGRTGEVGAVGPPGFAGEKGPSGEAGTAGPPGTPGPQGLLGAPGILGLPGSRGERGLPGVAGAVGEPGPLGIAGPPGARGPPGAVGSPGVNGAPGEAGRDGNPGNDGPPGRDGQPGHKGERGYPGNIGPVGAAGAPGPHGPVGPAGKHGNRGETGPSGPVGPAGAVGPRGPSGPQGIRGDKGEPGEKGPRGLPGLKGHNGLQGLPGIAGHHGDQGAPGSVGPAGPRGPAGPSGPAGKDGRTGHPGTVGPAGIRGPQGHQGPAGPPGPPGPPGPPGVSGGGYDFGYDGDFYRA
protein,measurement,setting,value
B1,composition ratio of hydroxylated lysine to the total lysine residues (amino acid analysis of purified collagen),[1],a composition ratio of the hydroylated lysine to the total lysine residues was increased up to 50.1%
same,composition ratio of hydroxylated lysine to the total lysine residues (amino acid analysis of purified collagen),[2],a composition ratio of hydroxylated lysine to the total lysine residues was increased up to 36.9%
